# Measurements published in patent publication US20240360201A1 (BIOCYTOGEN PHARMACEUTICALS BEIJING, published 2024).
# B1: PDL1-avelumab (antibody, human IgG1, lambda)
# heavy: not shown
# light: QSALTQPASVSGSPGQSITISCTGTSSDVGGYNYVSWYQQHPGKAPKLMIYDVSNRPSGVSNRFSGSKSGNTASLTISGLQAEDEADYYCSSYTSSSTRVFGTGTKVTVLGQPKANPTVTLFPPSSEELQANKATLVCLISDFYPGAVTVAWKADGSPVKAGVETTKPSKQSNNKYAASSYLSLTPEQWKSHRSYSCQVTHEGSTVEKTVAPTECS
# notes: IgG1; also called anti-PD-L1 IgG1 antibody; PD-L1 antibody
# B2: PDL1-TGFbR2-3A-IgG4 (antibody)
# heavy: EVQLLESGGGLVQPGGSLRLSCAASGFTFSSYIMMWVRQAPGKGLEWVSSIYPSGGITFYADTVKGRFTISRDNSKNTLYLQMNSLRAEDTAVYYCARIKLGTVTTVDYWGQGTLVTVSSASTKGPSVFPLAPCSRSTSESTAALGCLVKDYFPEPVTVSWNSGALTSGVHTFPAVLQSSGLYSLSSVVTVPSSSLGTKTYTCNVDHKPSNTKVDKRVESKYGPPCPPCPAPEFLGGPSVFLFPPKPKDTLMISRTPEVTCVVVDVSQEDPEVQFNWYVDGVEVHNAKTKPREEQFNSTYRVVSVLTVLHQDWLNGKEYKCKVSNKGLPSSIEKTISKAKGQPREPQVYTLPPSQEEGGGGSGGGGSIPPHVQKSVNNDMIVTDNNGAVKFPQLCKFCDVRFSTCDNQKSCMSNCSITSICEKPQEVCVAVWRKNDENITLETVCHDPKLPYHDFILEDAASPKCIMKEKKKPGETFFMCSCSSDECNDNIIFSEEYNTSNPDGGGGSGGGGSVSLTCLVKGFYPSDIAVEWESNGQPENNYKTTPPVLDSDGSFFLYSRLTVDKSRWQEGNVFSCSVMHEALHNHYTQKSLSLSLGK
# light: B1 light
# notes: IgG4 subtype of PDL1-TGFbR2-3A
# B3: PDL1-TGFbR2-3A (antibody)
# heavy: EVQLLESGGGLVQPGGSLRLSCAASGFTFSSYIMMWVRQAPGKGLEWVSSIYPSGGITFYADTVKGRFTISRDNSKNTLYLQMNSLRAEDTAVYYCARIKLGTVTTVDYWGQGTLVTVSSASTKGPSVFPLAPSSKSTSGGTAALGCLVKDYFPEPVTVSWNSGALTSGVHTFPAVLQSSGLYSLSSVVTVPSSSLGTQTYICNVNHKPSNTKVDKKVEPKSCDKTHTCPPCPAPELLGGPSVFLFPPKPKDTLMISRTPEVTCVVVDVSHEDPEVKFNWYVDGVEVHNAKTKPREEQYNSTYRVVSVLTVLHQDWLNGKEYKCKVSNKALPAPIEKTISKAKGQPREPQVYTLPPSRDEGGGGSGGGGSIPPHVQKSVNNDMIVTDNNGAVKFPQLCKFCDVRFSTCDNQKSCMSNCSITSICEKPQEVCVAVWRKNDENITLETVCHDPKLPYHDFILEDAASPKCIMKEKKKPGETFFMCSCSSDECNDNIIFSEEYNTSNPDGGGGSGGGGSVSLTCLVKGFYPSDIAVEWESNGQPENNYKTTPPVLDSDGSFFLYSKLTVDKSRWQQGNVFSCSVMHEALHNHYTQKSLSLSPGK
# light: B1 light
# notes: IgG1; also called PDL1-TGFbR2-3A (IgG1); PDL1-TGFbR2-3A-IgG1
# B4: CT4-4G12-IgG1 (antibody)
# heavy: not shown
# light: DIQMTQSPSFLSASVGDRVTITCRAGENIYSYLAWYQQKPGKAPKLLIYNARTLAEGVPSRFSGSGSGTEFTLTISSLQPEDFATYYCQHHYGSPRTFGGGTKLEIKRTVAAPSVFIFPPSDEQLKSGTASVVCLLNNFYPREAKVQWKVDNALQSGNSQESVTEQDSKDSTYSLSSTLTLSKADYEKHKVYACEVTHQGLSSPVTKSFNRGEC
# notes: IgG1; also called humanized CTLA4 antibody
# Key:
# [1] = target: T1, FcγRIIIA-V176-Acro (human, UniProt P08637 17-208); test: SPR (Biacore T200), antibody captured on protein A sensor chip, Fc receptor as analyte; analyte range 400nm-3.125nm
# T1 construct: bought; Val at 176; also called Human Fc gamma RIIIA/CD16a (V176) Protein, His Tag
# From the text: (§1) The Fc receptors included FcγRIIB (FcγRIIB-Acro), FcγRIIA (FcγRIIA-H167-Acro), FcγRIIIA (FcγRIIIA-V176-Acro), FcγRIIIB (FcγRIIIB-NA1-Acro), FcγRI (FcγRI-Sino), and FcRn (FcRn-Acro).
# [2] = target: T2, FcRn (human, UniProt P55899 24-297; P61769 21-119); test: SPR (Biacore T200), antibody captured on protein A sensor chip, FcRn-Acro as analyte; analyte range 1000nm-15.625nm
# T2 construct: bought; also called FcγRn; FcRn-Acro
# From the text: as §1
# [3] = target: T3, FcγRI-Sino (human, UniProt P12314 16-288, limits assumed); test: SPR (Biacore T200), antibody captured on protein A sensor chip, Fc receptor as analyte; analyte range 400nm-6.25nm
# T3 construct: bought; also called CD64 Protein, Human, Recombinant (His Tag)
# From the text: as §1
# [4] = target: T4, FcγRIIA-H167-Acro (human, UniProt P12318 36-218, limits assumed); test: SPR (Biacore T200), antibody captured on protein A sensor chip, Fc receptor as analyte; analyte range 800nm-6.25nm
# T4 construct: bought; His at 167; also called Human Fc gamma RIIA/CD32a (H167) Protein, His Tag
# T4 sequence (looked up): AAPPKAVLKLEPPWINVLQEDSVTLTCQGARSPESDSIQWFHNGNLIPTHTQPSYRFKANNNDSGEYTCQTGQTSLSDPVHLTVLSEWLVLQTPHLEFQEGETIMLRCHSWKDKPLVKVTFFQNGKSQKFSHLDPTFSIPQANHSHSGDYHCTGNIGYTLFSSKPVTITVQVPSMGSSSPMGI
# From the text: as §1
# [5] = target: T5, FcγRIIIB-NA1-Acro (human, UniProt O75015 17-200, limits assumed); test: as above
# T5 construct: bought; also called Human Fc gamma RIIIB/CD16b (NA1) Protein, His Tag
# From the text: as §1
# [6] = target: T6, FcγRIIA-R167-Sino (human, UniProt P12318 34-218, limits assumed); test: SPR Biacore T200; binder captured on protein A chip, Fc receptor as analyte
# T6 construct: bought; Arg at 167; also called FCRIIA-R167-Sino; CD32A Protein, Human, Recombinant (167 Arg, His Tag)
# T6 sequence (looked up): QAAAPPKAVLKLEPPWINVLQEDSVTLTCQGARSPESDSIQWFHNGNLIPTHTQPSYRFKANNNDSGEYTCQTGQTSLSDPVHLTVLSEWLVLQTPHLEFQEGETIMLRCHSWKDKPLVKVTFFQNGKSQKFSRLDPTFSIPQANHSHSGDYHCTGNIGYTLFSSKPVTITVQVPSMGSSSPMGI
# Description: (§2) Binding affinities of the fusion proteins PDL1-TGFbR2-3A (IgG1) (or PDL1-TGFbR2-3A-IgG1) and PDL1-TGFbR2-3A-IgG4 to human Fc receptors were measured by surface plasmon resonance (SPR) using Biacore™ T200 biosensor equipped with pre-immobilized protein A sensor chips. The Fc receptors included FcγRI-Sino, FcγRIIA-R167-Sino, FcγRIIIA-F176-Sino, FcγRIIIB-Sino, and FcγRn. A humanized CTLA4 antibody CT4-4G12-IgG1 (CT4-4G12, or 4G12; VH SEQ ID NO: 44, VL SEQ ID NO: 45) was used as a control to test binding affinity to FcγRn.
# [7] = target: T7, FcγRIIIB-Sino (human, UniProt O75015 17-200, limits assumed); test: as above
# T7 construct: bought; also called FCRIIIB-Sino; CD16b Protein, Human, Recombinant (NA1 allotypes, His Tag)
# Description: as §2
# [8] = target: T3, FcγRI-Sino; test: as above
# Description: as §2
# [9] = target: T2, FcRn; test: as above
# Description: as §2
# [10] = target: T8, TGFb1 (Homo sapiens (Human), UniProt P01137 279-390, Active TGF-beta-1 is a disulfide-linked homodimer of this chain; one copy is given.); test: SPR; binder as capture solution, TGFb1 as analyte
# T8 construct: also called TGFb1 protein
# [11] = target: human CTLA4 (hCTLA4-His) (human, UniProt P16410 36-161, limits assumed); test: SPR Biacore T200; binder captured on protein A chip, target as analyte
# Description: Binding affinities of the fusion proteins against human CTLA4 (hCTLA4-His) or human PD-L1 (hPDL1) were measured by surface plasmon resonance (SPR) using Biacore™ T200 biosensor equipped with pre-immobilized protein A sensor chips. A CTLA4 antibody CT4-4G12-IgG1 (CT4) was used as a control. ATOR1015-CD86 (CD86) and KN035-IgG1 (with D265A mutation in heavy chain constant domain) were also used as controls.
# T8 sequence (P01137 279-390 limits assumed): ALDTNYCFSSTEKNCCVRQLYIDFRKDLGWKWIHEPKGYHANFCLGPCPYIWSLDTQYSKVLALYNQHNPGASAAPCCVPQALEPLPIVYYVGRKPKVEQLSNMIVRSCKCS
# T3 sequence (P12314 16-288 limits assumed): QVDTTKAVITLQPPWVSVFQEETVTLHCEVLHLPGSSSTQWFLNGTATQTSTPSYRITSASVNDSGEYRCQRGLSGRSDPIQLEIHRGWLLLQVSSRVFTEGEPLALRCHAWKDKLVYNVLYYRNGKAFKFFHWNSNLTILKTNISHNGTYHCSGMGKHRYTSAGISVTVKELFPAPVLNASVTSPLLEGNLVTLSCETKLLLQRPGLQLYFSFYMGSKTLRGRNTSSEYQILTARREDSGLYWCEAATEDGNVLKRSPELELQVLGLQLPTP
# T2 sequence (P55899 24-297 limits assumed, chain 1 of 2): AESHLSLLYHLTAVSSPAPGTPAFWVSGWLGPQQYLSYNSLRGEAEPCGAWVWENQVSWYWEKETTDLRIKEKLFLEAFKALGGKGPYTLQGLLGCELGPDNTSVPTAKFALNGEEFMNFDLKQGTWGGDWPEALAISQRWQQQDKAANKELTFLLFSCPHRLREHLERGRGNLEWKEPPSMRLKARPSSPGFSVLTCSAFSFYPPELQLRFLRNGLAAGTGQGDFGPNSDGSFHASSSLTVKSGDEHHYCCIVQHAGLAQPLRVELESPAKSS
# T2 sequence (P61769 21-119 limits assumed, chain 2 of 2): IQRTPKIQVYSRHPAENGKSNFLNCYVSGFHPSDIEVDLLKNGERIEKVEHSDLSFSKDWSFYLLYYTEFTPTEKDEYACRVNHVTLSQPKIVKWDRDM
# T7 sequence (O75015 other isoform, or with tags, fused parts or gaps limits assumed): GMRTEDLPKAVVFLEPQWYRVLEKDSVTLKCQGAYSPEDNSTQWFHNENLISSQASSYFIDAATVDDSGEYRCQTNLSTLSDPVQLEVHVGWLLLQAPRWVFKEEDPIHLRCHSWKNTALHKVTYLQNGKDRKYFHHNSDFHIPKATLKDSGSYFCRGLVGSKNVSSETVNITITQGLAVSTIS
# human CTLA4 (hCTLA4-His), sequence (P16410 36-161 limits assumed): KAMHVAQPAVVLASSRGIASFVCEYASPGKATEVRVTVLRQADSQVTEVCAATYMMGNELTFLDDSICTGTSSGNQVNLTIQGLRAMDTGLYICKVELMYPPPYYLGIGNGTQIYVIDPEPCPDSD
# T1 sequence (P08637 17-208 F176V limits assumed): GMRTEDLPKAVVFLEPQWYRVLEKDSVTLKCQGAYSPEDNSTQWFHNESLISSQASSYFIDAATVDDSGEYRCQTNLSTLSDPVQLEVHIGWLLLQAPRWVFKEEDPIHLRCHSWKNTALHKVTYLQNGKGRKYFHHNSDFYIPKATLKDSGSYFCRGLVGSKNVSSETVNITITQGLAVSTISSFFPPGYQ
# T5 sequence (O75015 other isoform, or with tags, fused parts or gaps limits assumed): as the sequence (O75015 other isoform, or with tags, fused parts or gaps limits assumed) above
Binder,Kd [1] [nM],Kd [2] [nM],Kd [3] [nM],Kd [4] [nM],Kd [5] [nM],Kd [6] [nM],Kd [7] [nM],Kd [8] [nM],Kd [9] [nM],Kd [10] [nM],koff [10] [s⁻¹],kon [10] [M⁻¹ s⁻¹],Kd [11] [nM],koff [11] [s⁻¹],kon [11] [M⁻¹ s⁻¹]
B1,263,1250,101,1050,33100,692,1210,6.52,,,,,,,
B2,,,,,,1780,576,273,214,,,,,,
B3,,,,,,844,1330,14.5,19.4,37.3,0.00573,154000,,,
B4,,,,,,,,,126,,,,5.91,0.00151,256000
